The text below walks through data of the supplement of paper PMC7877785.

± gives the uncertainty stated by the source.

The series is described as follows: self-splicing fitness, log relative to wild type (ln ratio); higher = more splicing; Tetrahymena group I intron in knt gene, E. coli kanamycin selection, DiMSum; sequences stand for … in CUCUCU…GGAGGGAAAAGUUAUCAGGCAUGCACCUGGUAGCUAGUCUUUAAACCAAUAGAUUGCAUCGGUUUAAAAGGCAAGACCGUCAAAUUGCGGGAAAGGGGUCAACAGCCGUUCAGUACCAAGUCUCAGGGGAAACUUUGAGAUGGCCUUGCAAAGGGUAUGGUAAUAAGCUGACGGACAUGGUCCUAACCACGCAGCCAAGUCCUAAGUCAACAGAUCUUCUGUUGAUAUGGAUGCAGUUCACAGACUAAAUGUCGGUCGGGGAAGAUGUAUUCUUCUCAUAAGAUAUAGUCGGACCUCUCCUUAAUGGGAGCUAGCGGAUGAAGUGAUGCAACACUGGAGCCGCUGGGAACUAAUUUGUAUGCGAAAGUAUAUUGAUUAGUUUUGGAGUACUCGUGGUCG
In short, it runs like this: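 DiMSum derived fitness as the error-weighted combination of fold changes across replicates, kanamycin versus no kanamycin, normalised to wild type. E. coli BL21(DE3) held the library, which randomised all eight P1ex-region intron nucleotides within the knt kanamycin-resistance gene on pET-22b(+). Six replicate transformations grew overnight at 37°C or 30°C on LB agar with or without 25 μg/mL kanamycin, also containing 100 μg/mL carbenicillin, 50 μM IPTG and 0.2% rhamnose, and pooled colonies were amplicon-sequenced on an Illumina HiSeq 2500.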

Consider GACAAGCAAUAUUACGUCUG, for which the “self-splicing fitness (ln)” value runs as follows: (30 °C) -3.26 ± 0.16; (37 °C) -2.89 ± 0.15.
For GACAAGCAAUAUUACGUGAA the same measures were -1.81 ± 0.076 and -1.11 ± 0.089.
For GACAAGCAAUAUUACGUUCA the same measures were -1.21 ± 0.074 and -0.263 ± 0.072.
For GACAAGCAAUAUUACGUUCU the same measures were -2.9 ± 0.13 and -1.45 ± 0.12.
With GACAAGCAAUAUUACGUUUC, the “self-splicing fitness (ln)” value (30 °C) is -4.22 ± 0.19 and the “self-splicing fitness (ln)” value (37 °C) is -2.25 ± 0.16.
With GACCAGCAAUAUUACGAGGA, the “self-splicing fitness (ln)” value is, setting by setting: (30 °C) -1.04 ± 0.12; (37 °C) -0.408 ± 0.11.
In the same order, the values of GACCAGCAAUAUUACGCAAU are -0.846 ± 0.062 and -0.343 ± 0.077.
On to GACCAGCAAUAUUACGCAGA, for which the “self-splicing fitness (ln)” value reads like this: (30 °C) -1.57 ± 0.11; (37 °C) -0.378 ± 0.093.
As to GACCAGCAAUAUUACGCCAU, the “self-splicing fitness (ln)” value was -3.59 ± 0.17 (30 °C) and -2.09 ± 0.13 (37 °C).
For GACCAGCAAUAUUACGCCCA the same measures were -0.923 ± 0.16 and 0.179 ± 0.19.
Take GACCAGCAAUAUUACGCCUA: the “self-splicing fitness (ln)” value was -0.572 ± 0.11 (30 °C) and 0.226 ± 0.12 (37 °C).
Consider GACCAGCAAUAUUACGCUCG, for which the “self-splicing fitness (ln)” value (30 °C) was -0.964 ± 0.13 and the “self-splicing fitness (ln)” value (37 °C) is -0.766 ± 0.12.
For GACCAGCAAUAUUACGCUUU the same measures were -0.00419 ± 0.078 and -0.213 ± 0.1.
In the same order, the values of GACCAGCAAUAUUACGGAAG are -1.42 ± 0.08 and -0.75 ± 0.088.
For GACCAGCAAUAUUACGGCGA the same measures were -0.195 ± 0.075 and 0.13 ± 0.11.
On to GACCAGCAAUAUUACGGGCA, for which the “self-splicing fitness (ln)” value runs as follows: (30 °C) -0.306 ± 0.078; (37 °C) 0.16 ± 0.096.
In the same order, the values of GACCAGCAAUAUUACGGGUG are -1.85 ± 0.068 and -1.36 ± 0.072.
For GACCAGCAAUAUUACGGUGG the same measures were -2.38 ± 0.077 and -0.875 ± 0.087.
For GACCAGCAAUAUUACGGUUC the same measures were -5.29 ± 0.25 and -2.73 ± 0.14.
Turning to GACCAGCAAUAUUACGGUUU, the “self-splicing fitness (ln)” value (30 °C) was -2.44 ± 0.083 and the “self-splicing fitness (ln)” value (37 °C) is -0.744 ± 0.079.
In the same order, the values of GACCAGCAAUAUUACGUAGG are -2.31 ± 0.075 and -1.62 ± 0.09.
In the same order, the values of GACCAGCAAUAUUACGUAUG are -1.75 ± 0.065 and -0.824 ± 0.076.
In the same order, the values of GACCAGCAAUAUUACGUCAG are -4.79 ± 0.32 and -2.85 ± 0.27.
Regarding GACGAGCAAUAUUACGAACA, the “self-splicing fitness (ln)” value runs as follows: (30 °C) -0.347 ± 0.3; (37 °C) -1.44 ± 0.3.
For GACGAGCAAUAUUACGACAC the same measures were -3.03 ± 0.49 and -1.55 ± 0.15.
In the same order, the values of GACGAGCAAUAUUACGACUU are -0.586 ± 0.17 and 0.25 ± 0.19.
For GACGAGCAAUAUUACGAGAG the same measures were -3.77 ± 0.34 and -0.809 ± 0.18.
With GACGAGCAAUAUUACGAGCG, the “self-splicing fitness (ln)” value (30 °C) was -1.88 ± 0.23.
For the sequence GACGAGCAAUAUUACGAGGG, the “self-splicing fitness (ln)” value is, setting by setting: (30 °C) -3.12 ± 0.25; (37 °C) -2.97 ± 0.35.
For GACGAGCAAUAUUACGAUAA, the “self-splicing fitness (ln)” value (37 °C) was -2.09 ± 0.43.
Take GACGAGCAAUAUUACGAUAC: the “self-splicing fitness (ln)” value runs as follows: (30 °C) -4.85 ± 0.28; (37 °C) -2.16 ± 0.2.
As for GACGAGCAAUAUUACGAUAG, the “self-splicing fitness (ln)” value (37 °C) was -3.92 ± 0.46.
As for GACGAGCAAUAUUACGAUCU, the “self-splicing fitness (ln)” value is, setting by setting: (30 °C) -2.04 ± 0.15; (37 °C) -1.13 ± 0.15.
For GACGAGCAAUAUUACGAUUG, the “self-splicing fitness (ln)” value was -4.17 ± 0.27 (30 °C) and -1.09 ± 0.13 (37 °C).
In the same order, the values of GACGAGCAAUAUUACGCACG are -3.63 ± 0.23 and -2.61 ± 0.25.
In the case of GACGAGCAAUAUUACGCGAU, the “self-splicing fitness (ln)” value is, setting by setting: (30 °C) -2.42 ± 0.26; (37 °C) -2.36 ± 0.45.
Regarding GACGAGCAAUAUUACGGAGA, the “self-splicing fitness (ln)” value (37 °C) was -2.9 ± 0.38.
In the case of GACGAGCAAUAUUACGGCAU, the “self-splicing fitness (ln)” value (30 °C) was -1.4 ± 0.14 and the “self-splicing fitness (ln)” value (37 °C) was -0.955 ± 0.17.
In the same order, the values of GACGAGCAAUAUUACGGUGA are -3.52 ± 0.23 and -2.05 ± 0.26.
In the same order, the values of GACGAGCAAUAUUACGGUUG are -2.82 ± 0.13 and -1.76 ± 0.13.
In the same order, the values of GACGAGCAAUAUUACGUCCG are -3.22 ± 0.27 and -2.69 ± 0.36.
As for GACGAGCAAUAUUACGUCGC, the “self-splicing fitness (ln)” value is -3.25 ± 0.47 (30 °C) and -0.634 ± 0.35 (37 °C).
For GACGAGCAAUAUUACGUGUU the same measures were -3.18 ± 0.16 and -3.09 ± 0.19.
For GACUAGCAAUAUUACGAACA the same measures were -1.02 ± 0.16 and -0.254 ± 0.17.
With GACUAGCAAUAUUACGACCA, the “self-splicing fitness (ln)” value is -0.781 ± 0.17 (30 °C) and 0.287 ± 0.18 (37 °C).
For GACUAGCAAUAUUACGACCU the same measures were 0.114 ± 0.093 and -0.756 ± 0.095.
In the same order, the values of GACUAGCAAUAUUACGACUU are 0.355 ± 0.06 and 0.58 ± 0.08.
As to GACUAGCAAUAUUACGAGCG, the “self-splicing fitness (ln)” value (30 °C) is -1.57 ± 0.1 and the “self-splicing fitness (ln)” value (37 °C) is -0.592 ± 0.12.
For GACUAGCAAUAUUACGCACU the same measures were -0.55 ± 0.11 and 0.415 ± 0.16.
On to GACUAGCAAUAUUACGCAGU, for which the “self-splicing fitness (ln)” value is, setting by setting: (30 °C) -3.21 ± 0.31; (37 °C) -2.17 ± 0.2.
Turning to GACUAGCAAUAUUACGCCCA, the “self-splicing fitness (ln)” value was -0.026 ± 0.17 (30 °C) and 0.443 ± 0.24 (37 °C).
For GACUAGCAAUAUUACGCGCC the same measures were -2.11 ± 0.32 and -0.0214 ± 0.39.
In the same order, the values of GACUAGCAAUAUUACGGAUU are -0.975 ± 0.066 and -0.588 ± 0.092.
Regarding GACUAGCAAUAUUACGGGAG, the “self-splicing fitness (ln)” value (30 °C) is -0.663 ± 0.096 and the “self-splicing fitness (ln)” value (37 °C) was found to be 0.0641 ± 0.12.
In the same order, the values of GACUAGCAAUAUUACGGGUU are -3.92 ± 0.24 and -2.74 ± 0.27.
In the same order, the values of GACUAGCAAUAUUACGGUAC are -2.1 ± 0.2 and -1.2 ± 0.18.
For GACUAGCAAUAUUACGGUCG the same measures were -2.05 ± 0.09 and -0.165 ± 0.1.
GACUAGCAAUAUUACGGUUU: the “self-splicing fitness (ln)” value was -1.7 ± 0.092 (30 °C) and -1.53 ± 0.11 (37 °C).
For GACUAGCAAUAUUACGUAAG the same measures were -0.946 ± 0.087 and -0.709 ± 0.11.
In the same order, the values of GACUAGCAAUAUUACGUACU are -1.13 ± 0.094 and -0.372 ± 0.14.
In the case of GACUAGCAAUAUUACGUUGC, the “self-splicing fitness (ln)” value (30 °C) was -2.56 ± 0.12 and the “self-splicing fitness (ln)” value (37 °C) is -2.5 ± 0.2.
For GACUAGCAAUAUUACGUUUC the same measures were -2.3 ± 0.12 and -2.84 ± 0.18.
In the same order, the values of GAGAAGCAAUAUUACGAAUU are -2.27 ± 0.14 and -1.13 ± 0.15.
On to GAGAAGCAAUAUUACGACCC, for which the “self-splicing fitness (ln)” value (30 °C) was -1.83 ± 0.38.
Take GAGAAGCAAUAUUACGACGA: the “self-splicing fitness (ln)” value was -0.554 ± 0.066 (30 °C) and -0.104 ± 0.09 (37 °C).
In the same order, the values of GAGAAGCAAUAUUACGAGAA are -2.75 ± 0.47 and -0.703 ± 0.35.
For GAGAAGCAAUAUUACGAGGU the same measures were -3.47 ± 0.33 and -3.9 ± 0.46.
As to GAGAAGCAAUAUUACGAGUU, the “self-splicing fitness (ln)” value is -1.95 ± 0.12 (30 °C) and -1.63 ± 0.13 (37 °C).
In the same order, the values of GAGAAGCAAUAUUACGAUCC are -1.9 ± 0.26 and -0.963 ± 0.43.
For GAGAAGCAAUAUUACGAUUG the same measures were -2.76 ± 0.22 and -1.49 ± 0.23.
In the same order, the values of GAGAAGCAAUAUUACGCACG are -0.497 ± 0.14 and -0.392 ± 0.15.
Turning to GAGAAGCAAUAUUACGCCAA, the “self-splicing fitness (ln)” value reads like this: (30 °C) -0.505 ± 0.27; (37 °C) -2.17 ± 0.22.
In the same order, the values of GAGAAGCAAUAUUACGCCCA are -0.503 ± 0.2 and -0.351 ± 0.18.
In the same order, the values of GAGAAGCAAUAUUACGCGAU are -2.81 ± 0.27 and -2.48 ± 0.33.
Regarding GAGAAGCAAUAUUACGCGGA, the “self-splicing fitness (ln)” value (30 °C) is -2.51 ± 0.22 and the “self-splicing fitness (ln)” value (37 °C) is -1.39 ± 0.17.
In the same order, the values of GAGAAGCAAUAUUACGCUCA are -1.29 ± 0.16 and -1.13 ± 0.15.
